Holding throughout (assay): ELISA
A general note: An ELISA detects its analyte on a solid surface through an enzyme-linked reagent.

One assay concerns the target T1, human NPR3 + ANP (human, UniProt P17342).
T1 chain 1: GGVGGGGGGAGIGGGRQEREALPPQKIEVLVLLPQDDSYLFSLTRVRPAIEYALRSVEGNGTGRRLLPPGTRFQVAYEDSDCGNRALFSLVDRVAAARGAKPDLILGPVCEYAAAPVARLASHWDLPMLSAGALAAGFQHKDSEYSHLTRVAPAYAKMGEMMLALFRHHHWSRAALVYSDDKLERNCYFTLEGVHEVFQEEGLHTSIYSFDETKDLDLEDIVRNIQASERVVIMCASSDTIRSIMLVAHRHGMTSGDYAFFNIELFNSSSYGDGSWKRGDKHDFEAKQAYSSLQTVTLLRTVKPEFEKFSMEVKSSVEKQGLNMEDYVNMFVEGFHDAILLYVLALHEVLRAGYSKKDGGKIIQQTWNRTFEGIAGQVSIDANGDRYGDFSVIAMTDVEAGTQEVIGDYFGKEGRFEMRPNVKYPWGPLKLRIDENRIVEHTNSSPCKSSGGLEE
T1 chain 2: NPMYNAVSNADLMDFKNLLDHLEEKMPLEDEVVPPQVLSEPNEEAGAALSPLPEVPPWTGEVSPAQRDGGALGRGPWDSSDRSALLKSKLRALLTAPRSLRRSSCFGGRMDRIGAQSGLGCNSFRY

In a further assay the target is T2, human NPR1 (human).
T2 chain: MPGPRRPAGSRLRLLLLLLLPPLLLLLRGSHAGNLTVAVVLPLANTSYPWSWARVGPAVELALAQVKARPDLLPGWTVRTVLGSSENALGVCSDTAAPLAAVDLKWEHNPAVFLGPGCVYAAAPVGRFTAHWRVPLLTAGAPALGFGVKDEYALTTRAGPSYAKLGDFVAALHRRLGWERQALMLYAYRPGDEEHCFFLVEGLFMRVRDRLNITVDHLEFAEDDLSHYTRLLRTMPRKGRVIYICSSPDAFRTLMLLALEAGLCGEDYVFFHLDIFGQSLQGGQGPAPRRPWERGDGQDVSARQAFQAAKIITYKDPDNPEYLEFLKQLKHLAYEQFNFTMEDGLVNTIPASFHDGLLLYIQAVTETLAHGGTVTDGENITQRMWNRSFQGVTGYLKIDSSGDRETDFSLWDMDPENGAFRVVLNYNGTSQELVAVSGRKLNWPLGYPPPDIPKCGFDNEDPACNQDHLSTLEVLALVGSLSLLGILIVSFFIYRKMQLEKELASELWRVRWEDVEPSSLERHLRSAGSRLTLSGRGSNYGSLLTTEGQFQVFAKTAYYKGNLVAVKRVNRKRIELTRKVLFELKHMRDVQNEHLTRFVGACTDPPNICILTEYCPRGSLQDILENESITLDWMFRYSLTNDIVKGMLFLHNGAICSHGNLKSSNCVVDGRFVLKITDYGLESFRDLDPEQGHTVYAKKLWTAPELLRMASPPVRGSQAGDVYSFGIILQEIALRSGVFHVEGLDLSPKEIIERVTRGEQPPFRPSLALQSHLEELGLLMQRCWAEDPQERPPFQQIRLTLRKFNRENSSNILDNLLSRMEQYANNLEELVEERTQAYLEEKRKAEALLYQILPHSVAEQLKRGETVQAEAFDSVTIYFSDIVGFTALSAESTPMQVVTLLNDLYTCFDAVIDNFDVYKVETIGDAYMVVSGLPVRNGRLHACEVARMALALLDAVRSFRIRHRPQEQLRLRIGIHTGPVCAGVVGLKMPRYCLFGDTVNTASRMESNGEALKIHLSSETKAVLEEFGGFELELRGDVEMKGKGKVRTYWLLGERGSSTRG

The target of another assay is T3, rat NPR1-ANP complex (rat).
T3 chain 1: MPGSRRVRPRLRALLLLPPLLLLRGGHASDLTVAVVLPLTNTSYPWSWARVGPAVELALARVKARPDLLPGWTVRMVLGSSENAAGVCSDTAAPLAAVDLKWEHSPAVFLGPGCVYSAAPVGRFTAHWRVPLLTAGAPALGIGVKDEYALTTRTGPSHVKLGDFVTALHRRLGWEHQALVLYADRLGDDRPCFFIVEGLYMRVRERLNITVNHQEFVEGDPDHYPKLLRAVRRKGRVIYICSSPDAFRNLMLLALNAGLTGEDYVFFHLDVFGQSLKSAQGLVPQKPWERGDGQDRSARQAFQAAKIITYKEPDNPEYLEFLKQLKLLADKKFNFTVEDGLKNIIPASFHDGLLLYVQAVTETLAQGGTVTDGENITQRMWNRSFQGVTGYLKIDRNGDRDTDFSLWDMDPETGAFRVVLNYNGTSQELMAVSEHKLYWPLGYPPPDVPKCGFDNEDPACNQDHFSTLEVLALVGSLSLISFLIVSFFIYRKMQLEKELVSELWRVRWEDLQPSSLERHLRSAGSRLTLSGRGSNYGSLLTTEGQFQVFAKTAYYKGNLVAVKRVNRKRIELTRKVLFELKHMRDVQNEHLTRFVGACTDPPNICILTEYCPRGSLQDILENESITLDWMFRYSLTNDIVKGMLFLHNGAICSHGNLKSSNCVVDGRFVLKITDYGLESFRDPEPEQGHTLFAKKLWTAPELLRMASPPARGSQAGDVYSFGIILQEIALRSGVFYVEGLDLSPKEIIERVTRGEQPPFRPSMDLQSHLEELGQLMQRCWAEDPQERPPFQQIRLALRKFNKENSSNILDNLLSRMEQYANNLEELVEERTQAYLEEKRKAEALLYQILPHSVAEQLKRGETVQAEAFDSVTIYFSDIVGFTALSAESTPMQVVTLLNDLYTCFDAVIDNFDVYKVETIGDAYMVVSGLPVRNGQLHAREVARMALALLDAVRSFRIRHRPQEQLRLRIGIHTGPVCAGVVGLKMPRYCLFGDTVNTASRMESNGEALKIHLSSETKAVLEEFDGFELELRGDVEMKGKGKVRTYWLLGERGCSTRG
T3 chain 2: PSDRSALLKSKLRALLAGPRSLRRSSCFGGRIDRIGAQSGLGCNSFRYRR

For a further assay, the target named is T4, rat NPR1 (rat).
T4 chain: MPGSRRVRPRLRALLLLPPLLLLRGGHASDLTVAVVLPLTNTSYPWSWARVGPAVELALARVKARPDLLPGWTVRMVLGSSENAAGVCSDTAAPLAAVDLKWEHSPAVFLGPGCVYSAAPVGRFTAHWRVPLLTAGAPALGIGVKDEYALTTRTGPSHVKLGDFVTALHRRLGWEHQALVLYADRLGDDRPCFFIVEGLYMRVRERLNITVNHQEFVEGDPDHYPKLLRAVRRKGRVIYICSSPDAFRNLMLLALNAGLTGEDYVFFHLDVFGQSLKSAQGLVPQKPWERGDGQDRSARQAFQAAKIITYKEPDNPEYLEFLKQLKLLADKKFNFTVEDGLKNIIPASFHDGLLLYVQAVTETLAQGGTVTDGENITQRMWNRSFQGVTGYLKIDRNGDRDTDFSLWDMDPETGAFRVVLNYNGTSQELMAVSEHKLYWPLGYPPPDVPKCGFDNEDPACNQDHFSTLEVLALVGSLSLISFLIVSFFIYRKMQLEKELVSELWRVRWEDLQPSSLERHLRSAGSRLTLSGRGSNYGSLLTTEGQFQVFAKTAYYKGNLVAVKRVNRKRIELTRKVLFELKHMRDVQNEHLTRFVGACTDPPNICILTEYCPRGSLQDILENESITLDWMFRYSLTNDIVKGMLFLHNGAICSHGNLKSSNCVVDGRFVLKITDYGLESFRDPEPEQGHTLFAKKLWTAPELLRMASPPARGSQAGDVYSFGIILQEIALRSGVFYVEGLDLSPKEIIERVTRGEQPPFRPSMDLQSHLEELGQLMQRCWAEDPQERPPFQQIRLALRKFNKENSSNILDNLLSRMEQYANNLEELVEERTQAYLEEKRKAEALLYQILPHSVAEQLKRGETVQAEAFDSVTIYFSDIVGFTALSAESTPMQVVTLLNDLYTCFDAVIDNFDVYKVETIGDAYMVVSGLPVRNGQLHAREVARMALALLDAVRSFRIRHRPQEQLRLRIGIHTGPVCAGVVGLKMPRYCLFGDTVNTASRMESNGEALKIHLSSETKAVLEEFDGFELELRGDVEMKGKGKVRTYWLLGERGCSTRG

Our source for the binding result and EC50 values is patent US20230365674 (published 2023).

For orientation: EC50 means the concentration that produces a half-maximal response. Low values mean greater potency, high ones weaker potency.

B1: WW06 IgG (antibody, V domains shown)
VH: QVQLVQSGAEVKKPGESLKISCKGSGYSFTSYWIAWVRQMPGKGLEWMGRIDPDNSYTRYSPSFQGQVTISADKSISTAYLQWSSLKASDTAMYYCARWLSPGYALGEQPAGMDHWGQGTLVTVSS
VL: DIVLTQPPSVSGAPGQRVTISCTGSSSNIGAGYAVHWYQQLPGTAPKLLIYSNNKRPSGVPDRFSGSKSGTSASLAITGLQAEDEADYYCQSYDLQKSSRVFGGGTKLTVL
For B1, the binding result with human NPR3 + ANP, with rat NPR1-ANP complex and with rat NPR1 was “no binding” in each case. This molecule also returned an EC50 with human NPR1 of 2.5 nM.
